# Assay results taken from publication PMC3654228 (Nature communications, 2012).
# B1: p15 (natural protein)
# chain: MASVDFKTYVDQACRAAEEFVNVYYTTMDKRRRLLSRLYMGTATLVWNGNAVSGQESLSEFFEMLPSSEFQISVVDCQPVHDEATPSQTTVLVVICGSVKFEGNKQRDFNQNFILTAQASPSNTVWKIASDCFRFQDWAS
# What was measured:
# GST-Nxf1:p15;Aly;Thoc5 = GST-Nxf1:p15;Aly;Thoc5 (Homo sapiens;;Homo sapiens?, UniProt Q9UBU9;Q9UKK6;Q9JJW6;Q13769 1-619;1-140;1-218;1-683, ||); assay: GST pulldown then UV crosslinking
# GST-Nxf1:p15;Aly = GST-Nxf1:p15;Aly (Homo sapiens;, UniProt Q9UBU9;Q9UKK6;Q9JJW6 1-619;1-140;1-218, |); assay: GST pulldown then UV crosslinking
# Aly = Aly (UniProt Q9JJW6 1-218); assay: UV crosslinking
# 6His-RBD-psiRRM-LRR = target: T1, 6His-RBD-psiRRM-LRR (Homo sapiens, UniProt Q9UBU9 1-372); assay: UV crosslinking
# T1 sequence: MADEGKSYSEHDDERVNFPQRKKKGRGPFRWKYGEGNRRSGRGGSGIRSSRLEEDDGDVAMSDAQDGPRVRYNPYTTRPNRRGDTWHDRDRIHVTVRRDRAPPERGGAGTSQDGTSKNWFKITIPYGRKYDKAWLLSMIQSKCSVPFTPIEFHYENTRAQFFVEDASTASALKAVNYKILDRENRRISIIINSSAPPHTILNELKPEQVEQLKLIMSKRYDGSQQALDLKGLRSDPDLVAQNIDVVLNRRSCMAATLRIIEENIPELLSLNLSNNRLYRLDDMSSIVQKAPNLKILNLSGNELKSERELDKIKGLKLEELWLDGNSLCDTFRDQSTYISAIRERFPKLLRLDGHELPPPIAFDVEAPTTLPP
# GST-RBD-psiRRM-LRR = target: T2, GST-RBD-psiRRM-LRR (Homo sapiens, UniProt Q9UBU9 1-372); assay: UV crosslinking
# T2 sequence: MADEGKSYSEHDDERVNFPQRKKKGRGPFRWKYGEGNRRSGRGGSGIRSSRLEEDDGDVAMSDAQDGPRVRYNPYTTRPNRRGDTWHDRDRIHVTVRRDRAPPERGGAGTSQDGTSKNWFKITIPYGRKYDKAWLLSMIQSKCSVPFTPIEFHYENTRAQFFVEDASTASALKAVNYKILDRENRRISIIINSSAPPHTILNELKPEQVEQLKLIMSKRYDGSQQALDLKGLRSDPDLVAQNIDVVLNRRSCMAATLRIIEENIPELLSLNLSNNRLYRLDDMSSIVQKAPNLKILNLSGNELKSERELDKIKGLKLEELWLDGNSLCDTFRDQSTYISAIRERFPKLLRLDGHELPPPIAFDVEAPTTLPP
# [1] = target: T3, Nxf1 (of the Nxf1:p15 used for gel filtration) (human, UniProt Q9UBU9 1-619); assay: SEC
# T3 sequence (looked up): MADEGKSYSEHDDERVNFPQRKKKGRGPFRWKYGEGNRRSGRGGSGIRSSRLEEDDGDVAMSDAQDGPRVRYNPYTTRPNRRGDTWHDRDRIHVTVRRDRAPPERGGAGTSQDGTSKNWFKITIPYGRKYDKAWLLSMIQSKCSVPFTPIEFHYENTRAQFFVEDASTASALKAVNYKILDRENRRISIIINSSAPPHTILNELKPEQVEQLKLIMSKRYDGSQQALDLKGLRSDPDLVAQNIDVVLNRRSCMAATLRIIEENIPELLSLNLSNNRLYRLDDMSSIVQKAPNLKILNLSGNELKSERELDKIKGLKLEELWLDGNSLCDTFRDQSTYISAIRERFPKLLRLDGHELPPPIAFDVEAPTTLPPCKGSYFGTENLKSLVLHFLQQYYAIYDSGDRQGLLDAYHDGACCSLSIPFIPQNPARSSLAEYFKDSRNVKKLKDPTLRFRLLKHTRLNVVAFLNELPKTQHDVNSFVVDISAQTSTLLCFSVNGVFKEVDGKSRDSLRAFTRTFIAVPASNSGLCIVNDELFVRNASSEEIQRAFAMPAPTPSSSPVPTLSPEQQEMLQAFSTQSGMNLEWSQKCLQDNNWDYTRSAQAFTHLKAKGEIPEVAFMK
Binder,binding result (GST-Nxf1:p15;Aly;Thoc5),binding result (GST-Nxf1:p15;Aly),binding result (Aly),binding result (6His-RBD-psiRRM-LRR),binding result (GST-RBD-psiRRM-LRR),stoichiometry N [1]
CAGUCGCAUAGUGCA (ssRNA) [15-mer RNA],binds,binds,binds,binds,binds,
B1,,,,,,1
